From patent publication US8399213B2, “Method for monitoring intracellular tyrosine phosphatase activity” (University of Southern California, priority 2008, dated 2013)
Square brackets hold non-standard residues; d marks the D form. Ends that are not written are not given here. Ala(7-OPO3H2-coumarin-4-yl) = N[C@@H](Cc1cc(=O)oc2cc(OP(=O)(O)O)ccc12)C(=O)O

Legend:
Jurkat TAg (JTAg) cells = assay: Cellular uptake of cell-permeable CAP peptides, flow cytometry; type: cell-based; conditions: JTAg T cells treated with lipid-R7 peptides
Procedure: FIG. 6. […] Cells were incubated for 1 hour with RPMI with 0.5% FBS with DMSO alone or containing 12.5 μM of Ant-CAP or R8-CAP. The fluorescence (Y axis) versus forward scatter (X axis) of 10,000 cells gated as live T cells on the forward versus side scatter plot is shown. The percentage (%) of positive (showing fluorescence over the control level) cells is shown in each panel.
The inventors have shown that pCAP peptides are dephosphorylated by PTPs, but are not recognized by serine/threonine phosphatases, which makes them particularly suitable as probes to detect intracellular PTP activity (FIG. 1). […] The amount of enzyme used was normalized to be the same activity on DiFMUP. […] To determine if these peptides are suitable substrates for cell-based screening of PTP inhibitors, the inventors further assessed dephosphorylation in microinjected cells. Using fluorescence microscopy, intracellular dephosphorylation of the microinjected peptides was observed as recognized by an increase in fluorescence over time and was inhibited by a known PTP inhibitor (FIG. 2). […] Human Jurkat TAg (JTAg) cells with CAP-ANT and CAP-R8 peptides were incubated and analyzed by flow cytometry. […]
Cells are added to wells of a plate at a concentration of up to 10 million/mL. […] Cells can be analyzed with any flow cytometry system equipped with appropriate excitation and emission filters.

[1] = test system: T1, 9LckpCAP394 peptide (EDNE-pCAP-TARE)
T1 sequence: EDNEXTARE

YOP = YOP (Yersinia enterocolitica, UniProt P15273); conditions: excitation at 340 nm and emission at 460 nm; cited from earlier work
Sequence of YOP (P15273 whole entry): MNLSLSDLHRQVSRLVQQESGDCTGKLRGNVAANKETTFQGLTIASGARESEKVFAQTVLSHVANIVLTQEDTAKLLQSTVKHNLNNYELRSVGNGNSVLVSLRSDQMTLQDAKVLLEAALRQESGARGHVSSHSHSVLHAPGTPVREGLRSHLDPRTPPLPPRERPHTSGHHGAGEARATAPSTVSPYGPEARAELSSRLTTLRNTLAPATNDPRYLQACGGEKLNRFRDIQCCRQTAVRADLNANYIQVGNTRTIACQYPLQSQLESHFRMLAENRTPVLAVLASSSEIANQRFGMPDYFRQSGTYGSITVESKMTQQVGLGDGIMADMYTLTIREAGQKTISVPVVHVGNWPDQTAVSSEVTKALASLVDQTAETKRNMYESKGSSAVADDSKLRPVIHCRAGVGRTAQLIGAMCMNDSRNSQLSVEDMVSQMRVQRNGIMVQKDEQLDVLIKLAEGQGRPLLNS

T cell PTP (TCPTP) = biological target: T2, T cell PTP (TCPTP) (Homo sapiens, UniProt P17706); conditions: cited from earlier work
T2 sequence (P17706 1-415): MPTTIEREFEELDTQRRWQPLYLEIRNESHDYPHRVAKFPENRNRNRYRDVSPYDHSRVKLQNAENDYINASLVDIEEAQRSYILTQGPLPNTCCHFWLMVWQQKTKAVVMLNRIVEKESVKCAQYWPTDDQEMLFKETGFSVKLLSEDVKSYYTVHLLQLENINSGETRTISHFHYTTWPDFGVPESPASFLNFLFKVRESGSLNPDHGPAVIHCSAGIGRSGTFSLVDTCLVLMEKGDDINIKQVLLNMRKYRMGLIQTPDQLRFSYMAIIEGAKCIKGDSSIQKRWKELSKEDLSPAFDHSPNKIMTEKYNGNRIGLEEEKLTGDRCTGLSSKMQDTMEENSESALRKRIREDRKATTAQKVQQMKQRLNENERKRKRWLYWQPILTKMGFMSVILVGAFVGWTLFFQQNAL

PTPN22 = biological target: T3, PTPN22 (Homo sapiens, UniProt Q9Y2R2); assay: Dephosphorylation of pCAP peptide by PTPN22; type: biochemical
T3 sequence (Q9Y2R2 1-807): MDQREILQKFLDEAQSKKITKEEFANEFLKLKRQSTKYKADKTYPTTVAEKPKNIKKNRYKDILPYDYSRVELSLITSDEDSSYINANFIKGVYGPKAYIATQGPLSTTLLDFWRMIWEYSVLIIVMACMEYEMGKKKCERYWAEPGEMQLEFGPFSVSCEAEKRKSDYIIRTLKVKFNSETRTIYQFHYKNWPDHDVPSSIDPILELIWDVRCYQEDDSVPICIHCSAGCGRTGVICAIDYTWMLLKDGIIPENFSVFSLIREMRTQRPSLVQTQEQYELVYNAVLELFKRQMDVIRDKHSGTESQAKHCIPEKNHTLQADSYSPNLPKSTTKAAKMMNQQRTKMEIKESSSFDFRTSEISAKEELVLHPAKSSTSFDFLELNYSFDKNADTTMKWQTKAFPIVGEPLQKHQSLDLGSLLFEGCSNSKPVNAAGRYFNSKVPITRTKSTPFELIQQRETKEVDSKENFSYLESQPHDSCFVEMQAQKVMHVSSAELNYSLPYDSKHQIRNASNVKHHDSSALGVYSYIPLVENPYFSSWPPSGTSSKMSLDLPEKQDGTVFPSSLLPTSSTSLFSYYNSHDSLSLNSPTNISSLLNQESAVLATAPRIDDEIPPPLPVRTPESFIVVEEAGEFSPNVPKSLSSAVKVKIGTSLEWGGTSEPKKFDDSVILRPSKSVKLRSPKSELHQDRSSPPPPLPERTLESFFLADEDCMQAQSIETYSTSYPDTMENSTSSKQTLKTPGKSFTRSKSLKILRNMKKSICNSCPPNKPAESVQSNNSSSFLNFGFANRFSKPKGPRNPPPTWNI
Procedure: (§1) (A) Structure of CAP, pCAP, and Et2-pCAP, a non-hydrolyzable form of pCAP. (B) Kinetic parameters of dephosphorylation of 9LckpCAP394 peptide by PTPN22. (C) Time-course of dephosphorylation of 0.2 mM 9LckpCAP394 peptide by PP1 (filled triangles), PP2A (open squares), or PP2B (filled squares). Linear regression is also shown. The activity of the enzymes was normalized using difluoromethylumbelliferone phosphate (DiFMUP) as substrate and equal units were used for all the assays on pCAP peptide. Open diamonds and dashed line show representative activity of all enzymes on 0.2 mM DiFMUP.
(§2) The amount of enzyme used was normalized to be the same activity on DiFMUP. […] To determine if these peptides are suitable substrates for cell-based screening of PTP inhibitors, the inventors further assessed dephosphorylation in microinjected cells. […] In principle, any FACS system equipped with the appropriate excitation and emission filters could be used. […] Human Jurkat TAg (JTAg) cells with CAP-ANT and CAP-R8 peptides were incubated and analyzed by flow cytometry.

[2] = test system: serine-threonine phosphatases (PP1, PP2A, PP2B); assay: Dephosphorylation of pCAP peptide by serine-threonine phosphatases, plate reader time-course; type: biochemical; conditions: 0.2 mM peptide; optimal buffer for each enzyme; enzyme amount normalized to same activity on DiFMUP
Procedure: as §1, §2

[3] = test system: intracellular PTPs in JTAg cells; assay: Intracellular dephosphorylation of nucleofected pCAP peptide, flow cytometry; type: cell-based, human; conditions: preincubated with 10 mM vanadate; 100 μM 9LckpCAP394 peptide; 1′ after nucleofection
Procedure: FIG. 3. Dephosphorylation of pCAP peptide by intracellular PTPs after nucleofection. (A) Time-course of intracellular dephosphorylation of nucleofected 9Lck394 CAP-based peptides. JTAg human T cells were nucleofected in the presence of 100 μM pCAP peptide (blue lines), 100 μM CAP peptide (red lines) or 100 μM of a non-hydrolyzable Et2pCAP peptide (green lines). Cell fluorescence was measured using a BD LSR-II with a DAPI filter at 30″ (dotted lines) and 1′ (continuous lines). […] (B) Fluorescence of non-nucleofected JTAg cells incubated in the presence of the CAP-based peptides used for the experiment in panel (A). Graphs show fluorescence of non-nucleofected cells incubated with 100 μM pCAP peptide (dashed blue line), 100 μM CAP peptide (dashed red line) or 100 μM of a non-hydrolyzable Et2pCAP peptide (dashed green line). Data from panel (A) and (B) are representative of the same experiment. […] JTAg cells were nucleofected in the presence of 100 μM 9LckpCAP394 peptide and cell fluorescence was measured at 1′ (pink line), 2.5′ (purple line), 5′ (light blue line), and 10′ (dark blue line). […]
FIG. 4. […] Dashed red and blue lines show fluorescence of non-nucleofected cells incubated with pCAP peptide (blue dashed line) or CAP peptide (red dashed line), and vanadate.
FIG. 5. […] The fluorescence of cells was assessed at 1′ (black lines) or 15′ (yellow lines) after fixation. […]

[4] = biological target: T4, 9LckpCAP394 peptide (EDNE-pCAP-TARE)
T4 chain: EDNEXTARE

For C14-betaAla-R7-CAP, the “efficacy of internalization compared to non-lipidic tags” value (Jurkat TAg (JTAg) cells) was “substantially increase efficacy of internalization”.

In the case of PP2B, the “hydrolysis (dephosphorylation) of 0.2 mM pCAP peptide over time, fluorescence excitation 340 nm / emission 460 nm” value [1] is reported as “The serine-threonine phosphatases were ineffective at hydrolysis of this peptide”.

For “DADE-pCAP-GPAA-NH2 (DADEXGPAX; pCAP residue, C-terminal amide; artificial YOP substrate) [peptide 1, pCAP-containing peptide, artificial YOP substrate]”, the “fluorescence change on dephosphorylation by YOP” value (YOP) is listed as “linear increase in fluorescence” and the “turnover by human PTPs including TCPTP” value (T cell PTP (TCPTP)) is listed as “efficiently turned over”.

With PP1 the “hydrolysis (dephosphorylation) of 0.2 mM pCAP peptide over time, fluorescence excitation 340 nm / emission 460 nm” value [1] was “The serine-threonine phosphatases were ineffective at hydrolysis of this peptide”.

With “EDNE-pCAP-TARE (EDNE[Ala(7-OPO3H2-coumarin-4-yl)]TARE) [9Lck394p CAP, pCAP peptide, artificial PTPN22 substrate]” the “hydrolysis by PTPN22” value (PTPN22) was “efficiently hydrolyzed” and the “hydrolysis by serine-threonine phosphatases” value [2] was “ineffective at hydrolysis”.

In the case of C16-betaAla-R7-CAP, the “efficacy of internalization compared to non-lipidic tags” value (Jurkat TAg (JTAg) cells) is reported as “substantially increase efficacy of internalization”.

With PP2A the “hydrolysis (dephosphorylation) of 0.2 mM pCAP peptide over time, fluorescence excitation 340 nm / emission 460 nm” value [1] was “The serine-threonine phosphatases were ineffective at hydrolysis of this peptide”.

In the case of `[O]=[V]([O-])([O-])[O-]` [Vanadate, vanadate], the “inhibition of dephosphorylation of pCAP peptide in nucleofected JTAg cells” value [3] is reported as “inhibits the dephosphorylation”.

B1: PTPN22 (protein)
chain: MDQREILQKFLDEAQSKKITKEEFANEFLKLKRQSTKYKADKTYPTTVAEKPKNIKKNRYKDILPYDYSRVELSLITSDEDSSYINANFIKGVYGPKAYIATQGPLSTTLLDFWRMIWEYSVLIIVMACMEYEMGKKKCERYWAEPGEMQLEFGPFSVSCEAEKRKSDYIIRTLKVKFNSETRTIYQFHYKNWPDHDVPSSIDPILELIWDVRCYQEDDSVPICIHCSAGCGRTGVICAIDYTWMLLKDGIIPENFSVFSLIREMRTQRPSLVQTQEQYELVYNAVLELFKRQM
In the case of B1, the “hydrolysis (dephosphorylation) of pCAP peptide, fluorescence excitation 340 nm / emission 460 nm” value [4] is reported as “efficiently hydrolyzed by PTPN22”.
